Experiments:
[1] = biological target: human TSH receptor (full length) coated on ELISA plate wells (human) (UniProt P16473); assay: TSH-biotin binding inhibition ELISA, TSHR coated wells; 0.03 µg/mL in assay buffer + 100 µg/mL 5B3 IgG
[2] = biological target: TSHR (thyroid stimulating hormone receptor), full length human (human) (UniProt P16473); assay: negative control; competitor ^125I-K1-70 IgG, TSHR coated tubes; 0.01 µg/mL in HBD
[3] = biological target: thyroid stimulating hormone receptor (TSHR), full length human TSHR (human) (UniProt P16473); assay: TSH-biotin competition ELISA, TSHR coated wells; negative control, 10 µg/mL in HBD serum
[4] = biological target: TSHR (thyroid stimulating hormone receptor), full length human (human) (UniProt P16473); assay: negative control; competitor ^125I-K1-70 IgG, TSHR coated tubes; 100 µg/mL in assay buffer
[5] = biological target: human TSH receptor (full length) coated on ELISA plate wells (human) (UniProt P16473); assay: TSH-biotin binding inhibition ELISA, TSHR coated wells; 1 µg/mL in assay buffer; negative control MAb
[6] = biological target: TSH receptor (TSHR) coated on tubes (human) (UniProt P16473); assay: inhibition of 125I-K1-70 IgG binding to TSHR coated tubes; negative control 0.01 µg/mL in assay buffer
[7] = biological target: human thyroid stimulating hormone receptor (TSHR), full length (human) (UniProt P16473); assay: 125I-K1-70 Fab (competitor) binding to TSHR coated tubes; negative control MAb 10 µg/mL in assay buffer
[8] = biological target: TSHR (full length) coated on tubes (human) (UniProt P16473); assay: inhibition of 125I-K1-18 Fab (competitor) binding to TSHR coated tubes; negative control 1 µg/mL in assay buffer
[9] = biological target: human TSH receptor (full length) coated on ELISA plate wells (human) (UniProt P16473); assay: TSH-biotin binding inhibition ELISA, TSHR coated wells; 1 µg/mL in assay buffer + 100 µg/mL 5B3 IgG; negative control MAb
[10] = biological target: human TSH receptor (full length) coated on ELISA plate wells (human) (UniProt P16473); assay: TSH-biotin binding inhibition ELISA, TSHR coated wells; 10 µg/mL in assay buffer + 100 µg/mL 5B3 IgG; negative control MAb
[11] = biological target: TSH receptor (TSHR), full length human, coated on tubes (human) (UniProt P16473); assay: inhibition of 125I-K1-18 IgG binding to TSHR coated tubes; competitor 125I-K1-18 IgG; negative control sample at 100 µg/mL in assay buffer
[12] = biological target: TSH receptor (TSHR), full length human, coated on tubes (human) (UniProt P16473); assay: inhibition of 125I-K1-18 IgG binding to TSHR coated tubes; competitor 125I-K1-18 IgG; negative control sample at 0.01 µg/mL in assay buffer
[13] = biological target: TSHR (thyroid stimulating hormone receptor), full length human (human) (UniProt P16473); assay: competitor ^125I-K1-70 IgG, TSHR coated tubes; 1 µg/mL in HBD
[14] = biological target: thyroid stimulating hormone receptor (TSHR), full length human TSHR (human) (UniProt P16473); assay: TSH-biotin competition ELISA, TSHR coated wells; 0.1 µg/mL in HBD serum
[15] = biological target: thyroid stimulating hormone receptor (TSHR), full length human TSHR (human) (UniProt P16473); assay: TSH-biotin competition ELISA, TSHR coated wells; 0.01 µg/mL in HBD serum
[16] = biological target: thyroid stimulating hormone receptor (TSHR), full length human TSHR (human) (UniProt P16473); assay: TSH-biotin competition ELISA, TSHR coated wells; 1 µg/mL in assay buffer
[17] = biological target: full length wild type human TSHR (human) (UniProt P16473); assay: TSHR260-AP bridge ELISA, wild type TSHR on wells; IgG at 0.5 µg/mL in HBD
[18] = biological target: TSHR (full length) coated on tubes (human) (UniProt P16473); assay: inhibition of 125I-K1-18 Fab (competitor) binding to TSHR coated tubes; test sample 0.1 µg/mL in HBD serum
[19] = biological target: TSH receptor (TSHR), full length human, coated on tubes (human) (UniProt P16473); assay: inhibition of 125I-K1-18 IgG binding to TSHR coated tubes; competitor 125I-K1-18 IgG; sample at 10 µg/mL in HBD serum
[20] = biological target: TSH receptor (TSHR), full length human, coated on tubes (human) (UniProt P16473); assay: inhibition of 125I-K1-18 IgG binding to TSHR coated tubes; competitor 125I-K1-18 IgG; sample at 0.01 µg/mL in HBD serum
[21] = biological target: TSH receptor (TSHR), full length human, coated on tubes (human) (UniProt P16473); assay: inhibition of 125I-K1-18 IgG binding to TSHR coated tubes; competitor 125I-K1-18 IgG; sample at 0.01 µg/mL in assay buffer
[22] = biological target: TSH receptor (full length human TSHR) (human) (UniProt P16473); assay: competition ELISA: inhibition of M22 Fab-peroxidase (competitor) binding to TSHR coated wells; test sample at 0.1 µg/mL diluted in HBD serum pool
[23] = biological target: TSH receptor (full length human TSHR) (human) (UniProt P16473); assay: competition ELISA: inhibition of M22 Fab-peroxidase (competitor) binding to TSHR coated wells; test sample at 100 µg/mL diluted in HBD serum pool
[24] = biological target: human thyroid stimulating hormone receptor (TSHR), full length (human) (UniProt P16473); assay: 125I-K1-18 Fab competition, TSHR coated tubes; 10 µg/mL in HBD
[25] = biological target: human TSH receptor (full length) coated on ELISA plate wells (human) (UniProt P16473); assay: TSH-biotin binding inhibition ELISA, TSHR coated wells; 0.01 µg/mL in assay buffer
[26] = biological target: TSH receptor (TSHR), full length human, coated on tubes (human) (UniProt P16473); assay: inhibition of 125I-TSH binding to TSHR coated tubes; 10 µg/mL, diluted in assay buffer
[27] = biological target: thyroid stimulating hormone receptor (full length human TSHR) (human) (UniProt P16473); assay: ELISA, inhibition of TSH-biotin binding to TSHR coated wells; 0.01 µg/mL, diluted in assay buffer

For M22 IgG (antibody), the % inhibition of TSH-biotin binding [1] was 43.6%.

5B3 IgG (antibody) showed an Inhibition of binding (%) [2] of -5.8%, an Inhibition of binding (%) [3] of -1.6% and an Inhibition of binding (%) [4] of 1.3%. It also gave a % inhibition of TSH-biotin binding [5] of -1%, an Inhibition of binding (%) [6] of 3.2% and an Inhibition of binding (%) [7] of -2.1%. It also gave an Inhibition of binding (%) [8] of -0.9%, a % inhibition of TSH-biotin binding [9] of -4.8% and a % inhibition of TSH-biotin binding [10] of -4.8%. The Inhibition of binding (%) [11] was 6.7% and the Inhibition of binding (%) [12] was -4.2%.

For 9D33 IgG (antibody), the Inhibition of binding (%) [13] was 40.5%, the Inhibition of binding (%) [14] was 39% and the Inhibition of binding (%) [15] was 10.1%. For the same molecule, the Inhibition of binding (%) [16] was 81.8%, the Mean absorbance at 405 nm (absorbance at 405 nm) [17] was 0.273 and the Inhibition of binding (%) [18] was 32.2%. The Inhibition of binding (%) [19] was 68.1%, the Inhibition of binding (%) [20] was 5.3% and the Inhibition of binding (%) [21] was 20.9%. It also gave an Inhibition of binding (%) [22] of 24.1% and an Inhibition of binding (%) [23] of 65.9%.

B1: 5C9 IgG (antibody, from another filing, V domains shown)
VH: EVQLVESGGGLIQPGGSLRLSCAASGFTVSSNYMSWVRQAPGKGLEWVSVTYSGGSTSYADSVKGRFTISRDNSKNTLYLQMNSLRAEDTAVYYCARGGRYCSSISCYARSGCDYWGQGTLVTVSS
VL: AIQMTQSPSSLSASVGDRVTITCRASQSISNYLNWYQQKPGKAPKLLIYAASSLQSGVPSRFSGSGSGTDFTLTISSLQPEDFATYYCQQSYSSPSTTFGQGTKLEIK
Molecule B1 has an Inhibition of binding (%) [24] of 49.8%, a % inhibition of TSH-biotin binding [25] of 16.1% and an Inhibition of binding (%) [26] of 76.7%. The Inhibition of binding (%) [27] was 7.5%.

Reference: patent US20110300138A1 (published 2011)
